{"source": "patent US20200216495A1", "about": "(ADRX, published 2020)", "note": "Square brackets hold non-standard residues; d marks the D form. Ends that are not written are not given here.", "data": [{"biological_target": "Ac-VQIINK-NH2 (SEQ ID NO: 23) (N-terminal acetyl (Ac); C-terminal amide (NH2))", "assay": "cell-based or functional assay", "units": {"VQIINK Inhibition IC50": "µm"}, "values": [{"binder": "[dW][dE][dL][dR][dI][dH][dW]", "note": "[welrihw]", "VQIINK Inhibition IC50": 3.46}, {"binder": "[dV][dK][dV][dW]G[dR][dL][dW] (not fully specified (residue 5); printed as vkvwgrlw)", "note": "[vkvwgrlw]", "VQIINK Inhibition IC50": 4.51}, {"binder": "[dF][dK][dI][dE][dI][dE][dY][dH]", "note": "[fkieieyh]", "VQIINK Inhibition IC50": 4.03}, {"binder": "[dR][dR][dL][dK][dV][dR][dW][dW]", "note": "[rrlkvrww]", "VQIINK Inhibition IC50": 4.44}, {"binder": "[dW][dR][dL][dR][dI][dA][dW]", "note": "[wrlriaw]", "VQIINK Inhibition IC50": 2.86}, {"binder": "[dW][dW][dL][dK][dL][dR][dW][dW]", "note": "[wwlklrww]", "VQIINK Inhibition IC50": 3.79}, {"binder": "[dK][dV][dR][dW][dW][dL][dR][dW]", "note": "[kvrwwlrw]", "VQIINK Inhibition IC50": 4.35}, {"binder": "[dL][dK][dV][dR][dW][dW][dW][dR]", "note": "[lkvrwwwr]", "VQIINK Inhibition IC50": 3.34}, {"binder": "[dF][dR][dI][dR][dL][dR][dW]", "note": "[frirlrw]", "VQIINK Inhibition IC50": 2.58}, {"binder": "[dF][dR][dL][dW][dI][dH][dW]", "note": "[frlwihw]", "VQIINK Inhibition IC50": 4.01}, {"binder": "[dW][dD][dL][dK][dV][dR][dW]", "note": "[wdlkvrw]", "VQIINK Inhibition IC50": 3.87}, {"binder": "[dW][dR][dL][dK][dV][dR][dW]", "note": "[wrlkvrw]", "VQIINK Inhibition IC50": 2.45}, {"binder": "[dL][dK][dI][dQ][dI][dH][dY]", "note": "[lkiqihy]", "VQIINK Inhibition IC50": 2.82}, {"binder": "[dL][dK][dI][dR][dI][dH][dY][dE]", "note": "[lkirihye]", "VQIINK Inhibition IC50": 3.39}, {"binder": "[dW][dR][dL][dD][dV][dR][dW]", "note": "[wrldvrw]", "VQIINK Inhibition IC50": 2.42}, {"binder": "[dW][dL][dK][dI][dV][dW]", "note": "[wlkivw]", "VQIINK Inhibition IC50": 3.93}, {"binder": "[dW][dR][dT][dK][dV][dR][dW]", "note": "[wrtkvrw]", "VQIINK Inhibition IC50": 4.41}, {"binder": "[dL][dK][dL][dH][dL][dH][dF][dH]", "note": "[lklhlhfh]", "VQIINK Inhibition IC50": 2.87}, {"binder": "[dW][dR][dL][dK][dV][dE][dW]", "note": "[wrlkvew]", "VQIINK Inhibition IC50": 4.36}, {"binder": "[dW][dN][dL][dK][dV][dN][dW]", "note": "[wnlkvnw]", "VQIINK Inhibition IC50": 3.5}, {"binder": "[dI][dL][dK][dI][dV][dW]", "note": "[ilkivw]", "VQIINK Inhibition IC50": 4.13}, {"binder": "[dV][dR][dW][dW][dK][dL][dR][dW]", "note": "[vrwwklrw]", "VQIINK Inhibition IC50": 4.06}, {"binder": "[dL][dR][dI][dK][dI][dR][dF][dH]", "note": "[lrikirfh]", "VQIINK Inhibition IC50": 2.69}, {"binder": "[dL][dR][dI][dR][dI][dH][dY][dH]", "note": "[lririhyh]", "VQIINK Inhibition IC50": 3.34}, {"binder": "[dW][dR][dL][dT][dI][dH][dW]", "note": "[wrltihw]", "VQIINK Inhibition IC50": 3.16}, {"binder": "[dW][dR][dL][dK][dV][dD][dW]", "note": "[wrlkvdw]", "VQIINK Inhibition IC50": 3.21}, {"binder": "[dW][dR][dL][dK][dV][dA][dW]", "note": "[wrlkvaw]", "VQIINK Inhibition IC50": 3.57}, {"binder": "[dF][dK][dL][dK][dI][dK][dW]", "note": "[fklkikw]", "VQIINK Inhibition IC50": 2.66}, {"binder": "[dW][dR][dL][dR][dI][dT][dW]", "note": "[wrlritw]", "VQIINK Inhibition IC50": 2.89}, {"binder": "[dW][dR][dL][dK][dV][dR][dW][dF]", "note": "[wrlkvrwf]", "VQIINK Inhibition IC50": 2.53}, {"binder": "[dF][dW][dL][dR][dI][dH][dW][dF]", "note": "[fwlrihwf]", "VQIINK Inhibition IC50": 4.42}, {"binder": "[dW][dQ][dL][dQ][dV][dR][dW]", "note": "[wqlqvrw]", "VQIINK Inhibition IC50": 2.74}, {"binder": "[dW][dR][dL][dR][dI][dM][dW]", "note": "[wrlrimw]", "VQIINK Inhibition IC50": 2.61}, {"binder": "[dF][dR][dI][dK][dL][dR][dW]", "note": "[friklrw]", "VQIINK Inhibition IC50": 2.49}, {"binder": "[dL][dK][dI][dR][dI][dH][dY][dR]", "note": "[lkirihyr]", "VQIINK Inhibition IC50": 3.02}, {"binder": "[dW][dA][dL][dK][dV][dR][dW]", "note": "[walkvrw]", "VQIINK Inhibition IC50": 3.32}, {"binder": "[dW][dR][dL][dA][dV][dR][dW]", "note": "[wrlavrw]", "VQIINK Inhibition IC50": 3.89}, {"binder": "[dW][dT][dL][dR][dI][dH][dW]", "note": "[wtlrihw]", "VQIINK Inhibition IC50": 2.82}, {"binder": "[dL][dK][dI][dR][dI][dH][dY][dA]", "note": "[lkirihya]", "VQIINK Inhibition IC50": 3.83}, {"binder": "[dW][dM][dL][dR][dI][dH][dW]", "note": "[wmlrihw]", "VQIINK Inhibition IC50": 3.34}, {"binder": "[dW][dA][dL][dR][dI][dH][dW]", "note": "[walrihw]", "VQIINK Inhibition IC50": 3.12}, {"binder": "[dW][dR][dL][dW][dI][dH][dW][dW]", "note": "[wrlwihww]", "VQIINK Inhibition IC50": 4.07}, {"binder": "[dF][dK][dL][dW][dL][dR][dW][dF]", "note": "[fklwlrwf]", "VQIINK Inhibition IC50": 2.52}, {"binder": "[dL][dE][dL][dK][dI][dK][dF][dW]", "note": "[lelkikfw]", "VQIINK Inhibition IC50": 2.78}]}]}
